These results are taken from the supplement of paper PMC10724198.

± gives the standard deviation of the averaged measurements.
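Also: PSI is a weighted mean of sequencing reads over stability bins, variants kept only with over 10 reads, mCherry proximal and sfGFP distal, peptide attached via GGGS linker.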

In this data set the test system is Saccharomyces cerevisiae. Kind of data set: protein stability index of tFT-peptide fusion (C-terminal peptide) (PSI (0-1 scale)); higher = more stable (slower turnover). To be noted: genetic background: wild type; temperature: 30 C. As to the method:
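Multiplexed protein stability (MPS) profiling in S. cerevisiae. Random 12-aa peptides (tFT-X12 library) are fused to the C-terminus of a sfGFP-mCherry tandem fluorescent timer, after mCherry and a GGGS linker. Cells are FACS-sorted into 8 mCherry/sfGFP bins and deep-sequenced. The protein stability index (PSI) is the read-weighted bin average, scaled from 0 (unstable) to 1 (stable). Only peptides with >10 reads are reported; cells were grown at 30 °C in SC-His with glucose.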
In turn, EKRINLKKRGKT yielded a protein stability index of 0.669 ± 0.064.

Take ELCAFLFYPFVV: the protein stability index was found to be 0.599 ± 0.039.

Sequence ELEGKIMNITVW yielded a protein stability index of 0.661 ± 0.024.

As to ELGNREGVGYEV, the protein stability index was 0.781 ± 0.17.

In the case of ELKRVCVHRTER, the protein stability index was found to be 0.7 ± 0.025.

ELLHMAAGLGGR displayed a protein stability index of 0.643 ± 0.015.

ELNSGLLRSKET: the protein stability index worked out at 0.661 ± 0.0095.

ELQVSGNTIIVV showed a protein stability index of 0.529 ± 0.032.

Sequence ELRSAIRAVPFL registered a protein stability index of 0.737 ± 0.028.

ELRSVLDRDVRV displayed a protein stability index of 0.725 ± 0.049.

ELWCLGVLGGDV had a protein stability index of 0.708 ± 0.0089.

Take ENCPPETLNRGE: the protein stability index came to 0.686 ± 0.081.

Consider ENLFLRRVWFCR, for which the protein stability index is 0.686 ± 0.022.

On to ENLRKLGIALWG, for which the protein stability index is 0.682 ± 0.14.

ENQGEKQKKKKR showed a protein stability index of 0.685 ± 0.013.

ENRGIEITGKRS yielded a protein stability index of 0.727 ± 0.022.

ENVAKKEKITKK: the protein stability index is 0.694 ± 0.02.

Regarding EPAAHCGERRHL, the protein stability index worked out at 0.608 ± 0.064.

EPAFMRRFMSNK: the protein stability index was found to be 0.657 ± 0.016.

EPKLPPCPTPPS came in with a protein stability index of 0.721 ± 0.012.

In turn, EPRWPCNVAGIV gave a protein stability index of 0.706 ± 0.13.

Turning to EQKYHTCEDAQK, the protein stability index is 0.685 ± 0.1.

In turn, EQQTPIKKNKQR returned a protein stability index of 0.826 ± 0.036.

The sequence EQSERGIQQGTN gave a protein stability index of 0.633 ± 0.02.

Turning to EQWSAHSMLSGR, the protein stability index came to 0.705 ± 0.026.

As for EREKERNKNGKY, the protein stability index came out at 0.671 ± 0.013.

As to ERKHIISKGMNN, the protein stability index was found to be 0.608 ± 0.041.

In the case of ERKRPLAKKTKN, the protein stability index was 0.643 ± 0.055.

Take ERNSKKKRKRRL: the protein stability index came out at 0.701 ± 0.08.

The sequence ERTDEKTAEKER gave a protein stability index of 0.7012 ± 0.0049.

ERYLCVGIAHGP showed a protein stability index of 0.706 ± 0.02.

Regarding ESAGESRREFGG, the protein stability index came to 0.693 ± 0.011.

With ESAGPSIYKLVT, the protein stability index turned out to be 0.638 ± 0.0092.

In turn, ESDSEITYNKKQ returned a protein stability index of 0.729 ± 0.012.

In turn, ESGDKYKRRTQP gave a protein stability index of 0.699 ± 0.052.

In turn, ESIQAASANDSQ yielded a protein stability index of 0.688 ± 0.043.

For ESIQGRHRMSCL, the protein stability index is 0.6912 ± 0.006.

ESLLFICAHALV came in with a protein stability index of 0.566 ± 0.017.

Regarding ESLVIIIAGSMF, the protein stability index was determined as 0.567 ± 0.15.

ESLVSFTRPFSR gave a protein stability index of 0.748 ± 0.026.

ESNFTLIRKIRT came in with a protein stability index of 0.64 ± 0.0065.

The sequence ESQSLLLFQEPS came in with a protein stability index of 0.696 ± 0.057.

Sequence ESRARRRQGGKR showed a protein stability index of 0.738 ± 0.015.

ESRVTNKQSYQA displayed a protein stability index of 0.678 ± 0.03.

ETALKVGSVGGV returned a protein stability index of 0.71037 ± 6.9e-05.

The sequence ETCIWDGRPIAS had a protein stability index of 0.723 ± 0.085.

For ETGTRELIRQWV, the protein stability index stood at 0.718 ± 0.02.

The sequence EVGFPGRSWGAG registered a protein stability index of 0.689 ± 0.07.

With EVGWMPFYLVGL, the protein stability index was 0.67 ± 0.11.

Sequence EVKKTFCFSKDI yielded a protein stability index of 0.672 ± 0.011.

Take EVPGALISLHFY: the protein stability index is 0.654 ± 0.038.

For EVRCVFTGWHSS, the protein stability index was 0.785 ± 0.096.

As for EVSRCRTVPVWL, the protein stability index was found to be 0.662 ± 0.07.

With EVTGGRGGEGGV, the protein stability index was determined as 0.694 ± 0.046.

Sequence EVVGGSESRELG came in with a protein stability index of 0.6569 ± 0.0027.

EVWGGFGGGGGS: the protein stability index was 0.72 ± 0.027.

For the sequence EWCVRKATRDIE, the protein stability index was 0.659 ± 0.014.

Take EWGAGGVVVGGW: the protein stability index is 0.718 ± 0.043.

In turn, EWLCLRGCCVLY came in with a protein stability index of 0.667 ± 0.015.

The sequence EWLRYNKDKRKI had a protein stability index of 0.774 ± 0.14.

For EWQAGSDRRFYW, the protein stability index amounted to 0.618 ± 0.013.

With EWSGWVGKCGRG, the protein stability index amounted to 0.6644 ± 0.0059.

Consider EYCSSCLADLSP, for which the protein stability index was found to be 0.69 ± 0.074.

Sequence EYYRYLPVLIRL yielded a protein stability index of 0.467 ± 0.055.
